How the values were obtained:
Experiment in all cases: cell-based or functional assay
[1] = biological target: HIV-1 Env of pseudovirus 3103.v3.c10 (HIV-1)
[2] = biological target: HIV-1 Env of pseudovirus 231965.c01 (HIV-1)
[3] = biological target: HIV-1 Env of pseudovirus 3016.v5.c45 (HIV-1)
[4] = biological target: HIV-1 Env of pseudovirus 211-9 (HIV-1)
[5] = biological target: HIV-1 Env of pseudovirus BJOX025000.01.1 (HIV-1)
[6] = biological target: HIV-1 Env of pseudovirus C1080.c03 (HIV-1)
[7] = biological target: HIV-1 Env of pseudovirus 6952.v1.c20 (HIV-1)
[8] = biological target: HIV-1 Env of pseudovirus R1166.c01 (HIV-1)
[9] = biological target: HIV-1 Env of pseudovirus X1193_c1 (HIV-1)
[10] = biological target: HIV-1 Env of pseudovirus 6041.v3.c23 (HIV-1)
[11] = biological target: HIV-1 Env of pseudovirus T257-31 (HIV-1)
[12] = biological target: HIV-1 Env of pseudovirus P1981_C5_3 (HIV-1)
[13] = biological target: HIV-1 Env of pseudovirus BJOX009000.02.4 (HIV-1)
[14] = biological target: HIV-1 Env of pseudovirus 6545.v4.c1 (HIV-1)
[15] = biological target: HIV-1 Env of pseudovirus 191084 B7-19 (HIV-1)
[16] = biological target: HIV-1 Env of pseudovirus 6540.v4.c1 (HIV-1)
[17] = biological target: HIV-1 Env of pseudovirus T278-50 (HIV-1)
[18] = biological target: HIV-1 Env of pseudovirus A07412M1.vrc12 (HIV-1)
[19] = biological target: HIV-1 Env of pseudovirus 3301.v1.c24 (HIV-1)
[20] = biological target: HIV-1 Env of pseudovirus T251-18 (HIV-1)
[21] = biological target: HIV-1 Env of pseudovirus P0402_c2_11 (HIV-1)
[22] = biological target: HIV-1 Env of pseudovirus 0815.v3.c3 (HIV-1)
[23] = biological target: HIV-1 Env of pseudovirus 231966.c02 (HIV-1)
[24] = biological target: HIV-1 Env of pseudovirus 263-8 (HIV-1)
[25] = biological target: HIV-1 Env of pseudovirus C3347.c11 (HIV-1)
[26] = biological target: HIV-1 Env of pseudovirus 9004SS_A3_4 (HIV-1)
[27] = biological target: HIV-1 Env of pseudovirus C4118.c09 (HIV-1)
[28] = biological target: HIV-1 Env of pseudovirus 89-F1_2_25 (HIV-1)
[29] = biological target: HIV-1 Env of pseudovirus X2131_C1_B5 (HIV-1)
[30] = biological target: HIV-1 Env of pseudovirus X1254_c3 (HIV-1)
[31] = biological target: HIV-1 Env of pseudovirus R2184.c04 (HIV-1)
[32] = biological target: HIV-1 Env of pseudovirus 620345.c01 (HIV-1)
[33] = biological target: HIV-1 Env of pseudovirus T255-34 (HIV-1)
[34] = biological target: HIV-1 Env of pseudovirus R3265.c06 (HIV-1)
[35] = biological target: HIV-1 Env of pseudovirus X2088_c9 (HIV-1)
[36] = biological target: HIV-1 Env of pseudovirus BJOX010000.06.2 (HIV-1)
[37] = biological target: HIV-1 Env of pseudovirus BJOX028000.10.3 (HIV-1)

N49P7.1 (antibody)
IC50 (neutralisation, TZM.bl cells) [1]: 0.229 µg/mL
IC80 (neutralisation, TZM.bl cells) [1]: 0.772 µg/mL
MPI [1]: 100
IC50 (neutralisation, TZM.bl cells) [2]: 0.106 µg/mL
IC80 (neutralisation, TZM.bl cells) [2]: 0.364 µg/mL
MPI [2]: 100
IC50 (neutralisation, TZM.bl cells) [3]: 0.559 µg/mL
IC80 (neutralisation, TZM.bl cells) [3]: 2.54 µg/mL
MPI [3]: 100
IC50 [4]: 0.34 µg/mL
IC80 [4]: 1.17 µg/mL
MPI [4]: 100
IC50 [5]: 0.057 µg/mL
IC80 [5]: 0.378 µg/mL
MPI [5]: 100
IC50 [6]: 0.144 µg/mL
IC80 [6]: 1.05 µg/mL
MPI [6]: 100
IC50 (neutralisation, TZM.bl cells) [7]: 26.3 µg/mL
IC80 (neutralisation, TZM.bl cells) [7]: > 50 µg/mL
MPI [7]: 71
IC50 [8]: 0.136 µg/mL
IC80 [8]: 0.461 µg/mL
MPI [8]: 100
IC50 [9]: 0.035 µg/mL
IC80 [9]: 0.144 µg/mL
MPI [9]: 100
IC50 (neutralisation, TZM.bl cells) [10]: 0.078 µg/mL
IC80 (neutralisation, TZM.bl cells) [10]: 0.366 µg/mL
MPI [10]: 100
IC50 [11]: 0.209 µg/mL
IC80 [11]: 1.04 µg/mL
MPI [11]: 100
IC50 (neutralisation, TZM.bl cells) [12]: 0.216 µg/mL
IC80 (neutralisation, TZM.bl cells) [12]: 0.494 µg/mL
MPI [12]: 100
IC50 [13]: 0.219 µg/mL
IC80 [13]: 0.756 µg/mL
MPI [13]: 100
IC50 (neutralisation, TZM.bl cells) [14]: 1.15 µg/mL
IC80 (neutralisation, TZM.bl cells) [14]: 16 µg/mL
MPI [14]: 92
IC50 [15]: 0.069 µg/mL
IC80 [15]: 0.2 µg/mL
MPI [15]: 100
IC50 (neutralisation, TZM.bl cells) [16]: 14.7 µg/mL
IC80 (neutralisation, TZM.bl cells) [16]: > 50 µg/mL
MPI [16]: 75
IC50 [17]: 42.4 µg/mL
IC80 [17]: > 50 µg/mL
MPI [17]: 56
IC50 (neutralisation, TZM.bl cells) [18]: 0.232 µg/mL
IC80 (neutralisation, TZM.bl cells) [18]: 1.07 µg/mL
MPI [18]: 100
IC50 (neutralisation, TZM.bl cells) [19]: 0.041 µg/mL
IC80 (neutralisation, TZM.bl cells) [19]: 0.111 µg/mL
MPI [19]: 100
IC50 [20]: 0.229 µg/mL
IC80 [20]: 0.794 µg/mL
MPI [20]: 100
IC50 [21]: 0.029 µg/mL
IC80 [21]: 0.115 µg/mL
MPI [21]: 100
IC50 (neutralisation, TZM.bl cells) [22]: 0.023 µg/mL
IC80 (neutralisation, TZM.bl cells) [22]: 0.064 µg/mL
MPI [22]: 100
IC50 (neutralisation, TZM.bl cells) [23]: 0.203 µg/mL
IC80 (neutralisation, TZM.bl cells) [23]: 0.705 µg/mL
MPI [23]: 100
IC50 [24]: 0.104 µg/mL
IC80 [24]: 0.392 µg/mL
MPI [24]: 100
IC50 [25]: 0.048 µg/mL
IC80 [25]: 0.161 µg/mL
MPI [25]: 100
IC50 [26]: 0.221 µg/mL
IC80 [26]: 0.841 µg/mL
MPI [26]: 100
IC50 [27]: 0.048 µg/mL
IC80 [27]: 0.216 µg/mL
MPI [27]: 100
IC50 (neutralisation, TZM.bl cells) [28]: 41.6 µg/mL
IC80 (neutralisation, TZM.bl cells) [28]: > 50 µg/mL
MPI [28]: 58
IC50 (neutralisation, TZM.bl cells) [29]: 0.129 µg/mL
IC80 (neutralisation, TZM.bl cells) [29]: 0.431 µg/mL
MPI [29]: 100
IC50 [30]: 3.96 µg/mL
IC80 [30]: 18.2 µg/mL
MPI [30]: 96
IC50 [31]: 0.018 µg/mL
IC80 [31]: 0.04 µg/mL
MPI [31]: 100
IC50 [32]: > 50 µg/mL
IC80 [32]: > 50 µg/mL
MPI [32]: 47
IC50 [33]: 0.094 µg/mL
IC80 [33]: 0.447 µg/mL
MPI [33]: 100
IC50 [34]: 0.059 µg/mL
IC80 [34]: 0.328 µg/mL
MPI [34]: 100
IC50 [35]: 0.199 µg/mL
IC80 [35]: 0.726 µg/mL
MPI [35]: 100
IC50 [36]: 0.132 µg/mL
IC80 [36]: 0.623 µg/mL
MPI [36]: 100
IC50 [37]: 0.031 µg/mL
IC80 [37]: 0.29 µg/mL
MPI [37]: 100

From patent publication US20240117018A1
